{"source": "the Human Domainome abundance scans (Beltran et al. 2025)", "note": "± gives the uncertainty stated by the source.", "data": [{"experiment": "abundance fitness (aPCA) (normalised: wild type 0, dead -1); higher = more abundant; growth selection in yeast, the domain comes from the species named", "conditions": "Homo sapiens", "values": [{"substance": "Lipoamide acyltransferase component of branched-chain alpha-keto acid dehydrogenase complex, mitochondrial T213V, P11182", "abundance fitness": "-0.028 ± 0.048"}, {"substance": "Lipoamide acyltransferase component of branched-chain alpha-keto acid dehydrogenase complex, mitochondrial T213W, P11182", "abundance fitness": "-0.247 ± 0.053"}, {"substance": "Lipoamide acyltransferase component of branched-chain alpha-keto acid dehydrogenase complex, mitochondrial T213Y, P11182", "abundance fitness": "-0.386 ± 0.15"}, {"substance": "Lipoamide acyltransferase component of branched-chain alpha-keto acid dehydrogenase complex, mitochondrial V177A, P11182", "abundance fitness": "0.038 ± 0.04"}, {"substance": "Lipoamide acyltransferase component of branched-chain alpha-keto acid dehydrogenase complex, mitochondrial V177D, P11182", "abundance fitness": "-0.417 ± 0.073"}, {"substance": "Lipoamide acyltransferase component of branched-chain alpha-keto acid dehydrogenase complex, mitochondrial V177E, P11182", "abundance fitness": "-0.385 ± 0.049"}, {"substance": "Lipoamide acyltransferase component of branched-chain alpha-keto acid dehydrogenase complex, mitochondrial V177F, P11182", "abundance fitness": "-0.818 ± 0.076"}, {"substance": "Lipoamide acyltransferase component of branched-chain alpha-keto acid dehydrogenase complex, mitochondrial V177G, P11182", "abundance fitness": "-0.289 ± 0.038"}, {"substance": "Lipoamide acyltransferase component of branched-chain alpha-keto acid dehydrogenase complex, mitochondrial V177H, P11182", "abundance fitness": "-0.547 ± 0.15"}, {"substance": "Lipoamide acyltransferase component of branched-chain alpha-keto acid dehydrogenase complex, mitochondrial V177I, P11182", "abundance fitness": "-0.139 ± 0.058"}, {"substance": "Lipoamide acyltransferase component of branched-chain alpha-keto acid dehydrogenase complex, mitochondrial V177L, P11182", "abundance fitness": "-0.321 ± 0.04"}, {"substance": "Lipoamide acyltransferase component of branched-chain alpha-keto acid dehydrogenase complex, mitochondrial V177M, P11182", "abundance fitness": "-0.329 ± 0.078"}, {"substance": "Lipoamide acyltransferase component of branched-chain alpha-keto acid dehydrogenase complex, mitochondrial V177N, P11182", "abundance fitness": "-0.742 ± 0.26"}, {"substance": "Lipoamide acyltransferase component of branched-chain alpha-keto acid dehydrogenase complex, mitochondrial V177P, P11182", "abundance fitness": "-0.64 ± 0.08"}, {"substance": "Lipoamide acyltransferase component of branched-chain alpha-keto acid dehydrogenase complex, mitochondrial V177R, P11182", "abundance fitness": "-0.802 ± 0.043"}, {"substance": "Lipoamide acyltransferase component of branched-chain alpha-keto acid dehydrogenase complex, mitochondrial V177S, P11182", "abundance fitness": "-0.255 ± 0.045"}, {"substance": "Lipoamide acyltransferase component of branched-chain alpha-keto acid dehydrogenase complex, mitochondrial V177T, P11182", "abundance fitness": "-0.401 ± 0.06"}, {"substance": "Lipoamide acyltransferase component of branched-chain alpha-keto acid dehydrogenase complex, mitochondrial V177W, P11182", "abundance fitness": "-0.975 ± 0.14"}, {"substance": "Lipoamide acyltransferase component of branched-chain alpha-keto acid dehydrogenase complex, mitochondrial V191A, P11182", "abundance fitness": "-0.52 ± 0.058"}, {"substance": "Lipoamide acyltransferase component of branched-chain alpha-keto acid dehydrogenase complex, mitochondrial V191C, P11182", "abundance fitness": "-0.267 ± 0.053"}, {"substance": "Lipoamide acyltransferase component of branched-chain alpha-keto acid dehydrogenase complex, mitochondrial V191D, P11182", "abundance fitness": "-0.522 ± 0.092"}, {"substance": "Lipoamide acyltransferase component of branched-chain alpha-keto acid dehydrogenase complex, mitochondrial V191E, P11182", "abundance fitness": "-0.562 ± 0.043"}, {"substance": "Lipoamide acyltransferase component of branched-chain alpha-keto acid dehydrogenase complex, mitochondrial V191F, P11182", "abundance fitness": "-0.456 ± 0.054"}, {"substance": "Lipoamide acyltransferase component of branched-chain alpha-keto acid dehydrogenase complex, mitochondrial V191H, P11182", "abundance fitness": "-0.619 ± 0.12"}, {"substance": "Lipoamide acyltransferase component of branched-chain alpha-keto acid dehydrogenase complex, mitochondrial V191K, P11182", "abundance fitness": "-0.653 ± 0.045"}, {"substance": "Lipoamide acyltransferase component of branched-chain alpha-keto acid dehydrogenase complex, mitochondrial V191L, P11182", "abundance fitness": "-0.117 ± 0.047"}, {"substance": "Lipoamide acyltransferase component of branched-chain alpha-keto acid dehydrogenase complex, mitochondrial V191M, P11182", "abundance fitness": "-0.075 ± 0.051"}, {"substance": "Lipoamide acyltransferase component of branched-chain alpha-keto acid dehydrogenase complex, mitochondrial V191N, P11182", "abundance fitness": "-0.699 ± 0.23"}, {"substance": "Lipoamide acyltransferase component of branched-chain alpha-keto acid dehydrogenase complex, mitochondrial V191P, P11182", "abundance fitness": "-0.482 ± 0.044"}, {"substance": "Lipoamide acyltransferase component of branched-chain alpha-keto acid dehydrogenase complex, mitochondrial V191Q, P11182", "abundance fitness": "-0.632 ± 0.061"}, {"substance": "Lipoamide acyltransferase component of branched-chain alpha-keto acid dehydrogenase complex, mitochondrial V191R, P11182", "abundance fitness": "-0.756 ± 0.045"}, {"substance": "Lipoamide acyltransferase component of branched-chain alpha-keto acid dehydrogenase complex, mitochondrial V191S, P11182", "abundance fitness": "-0.593 ± 0.054"}, {"substance": "Lipoamide acyltransferase component of branched-chain alpha-keto acid dehydrogenase complex, mitochondrial V191T, P11182", "abundance fitness": "-0.696 ± 0.079"}, {"substance": "Lipoamide acyltransferase component of branched-chain alpha-keto acid dehydrogenase complex, mitochondrial V191W, P11182", "abundance fitness": "-0.899 ± 0.064"}, {"substance": "Lipoamide acyltransferase component of branched-chain alpha-keto acid dehydrogenase complex, mitochondrial V191Y, P11182", "abundance fitness": "-0.772 ± 0.067"}, {"substance": "Lipoamide acyltransferase component of branched-chain alpha-keto acid dehydrogenase complex, mitochondrial V192A, P11182", "abundance fitness": "-0.009 ± 0.045"}, {"substance": "Lipoamide acyltransferase component of branched-chain alpha-keto acid dehydrogenase complex, mitochondrial V192C, P11182", "abundance fitness": "-0.017 ± 0.055"}, {"substance": "Lipoamide acyltransferase component of branched-chain alpha-keto acid dehydrogenase complex, mitochondrial V192D, P11182", "abundance fitness": "-0.159 ± 0.12"}, {"substance": "Lipoamide acyltransferase component of branched-chain alpha-keto acid dehydrogenase complex, mitochondrial V192E, P11182", "abundance fitness": "0.023 ± 0.045"}, {"substance": "Lipoamide acyltransferase component of branched-chain alpha-keto acid dehydrogenase complex, mitochondrial V192F, P11182", "abundance fitness": "-0.31 ± 0.21"}, {"substance": "Lipoamide acyltransferase component of branched-chain alpha-keto acid dehydrogenase complex, mitochondrial V192I, P11182", "abundance fitness": "-0.041 ± 0.086"}, {"substance": "Lipoamide acyltransferase component of branched-chain alpha-keto acid dehydrogenase complex, mitochondrial V192K, P11182", "abundance fitness": "0.062 ± 0.046"}, {"substance": "Lipoamide acyltransferase component of branched-chain alpha-keto acid dehydrogenase complex, mitochondrial V192L, P11182", "abundance fitness": "-0.068 ± 0.044"}, {"substance": "Lipoamide acyltransferase component of branched-chain alpha-keto acid dehydrogenase complex, mitochondrial V192M, P11182", "abundance fitness": "-0.066 ± 0.1"}, {"substance": "Lipoamide acyltransferase component of branched-chain alpha-keto acid dehydrogenase complex, mitochondrial V192N, P11182", "abundance fitness": "-0.073 ± 0.062"}, {"substance": "Lipoamide acyltransferase component of branched-chain alpha-keto acid dehydrogenase complex, mitochondrial V192P, P11182", "abundance fitness": "0.011 ± 0.05"}, {"substance": "Lipoamide acyltransferase component of branched-chain alpha-keto acid dehydrogenase complex, mitochondrial V192Q, P11182", "abundance fitness": "-0.023 ± 0.046"}, {"substance": "Lipoamide acyltransferase component of branched-chain alpha-keto acid dehydrogenase complex, mitochondrial V192R, P11182", "abundance fitness": "-0.027 ± 0.038"}]}]}
